Consider three substances from patent US20070020627.

Data set [1] has as its system E2x (6-finger) (artificial). The note with it: stated as Km; assay not described.
Data set [2] relates to E2c (6-finger) (artificial). The note with it: stated as Km; assay not described.
Data set [3] has as its system E2cJ15E2x-VP64 (12-finger) (artificial). In words: cell_activity. The note with it: HeLa luciferase.
Data set [4] deals with SKD-E2c (6-finger) (artificial). Description: cell_activity. The note with it: HeLa luciferase.
In data set [5] the test system is VP64-E2c (6-finger) (artificial). Description: cell_activity. To be noted: HeLa luciferase.
Data set [6] relates to SKD-E2cJ15E2x (12-finger) (artificial). In words: cell_activity. The note with it: HeLa luciferase.

The substance “ACCGGAGAAACCAGGGGA (double strand) [E2X target]” yielded a Kd in data set [1] of 15 nM. In other words, the double-digit nanomolar range.

“GGGGCCGGAGCCGCAGTG (double strand) [E2c target]” displayed a dissociation constant Kd in data set [2] of 0.5 nM.

In the case of “E2p luciferase reporter (erbB2 promoter)”, the activity (fold activation) turned out to be 45 in data set [3] and 78 in data set [5]. The activity (fold repression) amounted to 36 in data set [4] and 8 in data set [6].
